# Measured values taken from patent US20070298997A1, “Compounds useful in treating diabetic microvascular complications and age-related macular degeneration” (priority 2003, published 2007).
# B1: kallistatin: Recombinant His-tagged rat kallistatin (serpin, SEQ ID NO:1) expressed in E. coli and affinity-purified (protein, listed as Homo sapiens)
# chain: DGILGRDTLPHEDQGKGRQLHSLTLASINTDFTLSLYKKLALRNPDKNVVFSPLSISAALAILSLGAKDSTMEEILEVLKFNLTEITEEEIHHQGFGHLLQRLSQPEDQAEINTGSALFIDKEQPILSEFQEKTRALYQAEAFVADFKQCNEAKKFINDYVSNQTQGKIAELFSELDERTSMVLVNYLLFKGKWKVPFNPNDTFESEFYLDEKRSVKVPMMKIKDLTTPYIRDEELSCSVLELKYTGNASALFILPDQGKMQQVESSLQPETLKKWKDSLRPRIISELRMPKFSISTDYNLEEVLPELGIRKIFSQQADLSRITGTKNLHVSQVVHKAVLDVDETGTEGAAATAVTAALKSLPQTIPPLNFNRPFMLVITDNNGQSVFFMGKVTNPM
# modifications: His tag
# Key:
# PEDF = PEDF secretion in HMC under high glucose (ELISA); format: cell-based, human; conditions: 30 mM glucose, 3 days
# Experimental: FIG. 13 illustrates prevention of the high glucose-induced decrease of PEDF in HMC by kallistatin. HMC were treated with high glucose (30 mM) in the presence of different concentrations of kallistatin for 3 days. Control cells were treated with 5 mM glucose and 5 mM glucose+25 mM mannitol as an osmolarity control. PEDF secretion into the medium was measured by ELISA (mean±SD, n=3).
# Kallistatin up-regulates endogenous anti-inflammatory factors in the kidney. Pigment epithelium-derived factor (PEDF) is an anti-angiogenic factor. Recently, the inventor has shown that PEDF also has anti-inflammatory activities and has a protective effect against DN (see U.S. Ser. No. 10/963,115, filed Oct. 12, 2004, the contents of which are hereby expressly incorporated herein by reference). Decreased PEDF levels in diabetic kidney may contribute to the development of DN. The effect of kallistatin on PEDF expression has been determined in kidney cells. HMC were treated with high glucose (30 mM glucose) with different concentrations of kallistatin for 3 days. The PEDF levels in the cultured medium were measured by ELISA specific for PEDF.
# pericytes = experiment: Quantification of viable cells by MTT assay, pericytes; format: cell-based, bovine; conditions: 5-160 nM, 72 h, P>0.05
# Experimental: (§1) FIG. 2 illustrates the specific inhibition of endothelial cell proliferation by recombinant kallistatin. RCEC were treated with recombinant kallistatin at concentrations of 5,10, 20, 40, 80 and 160 nM for 72 h. Viable cells were quantified by MTT assay. […] This effect appeared to be kallistatin concentration-dependent, with an apparent IC50 of 50 nM (FIG. 2) which is similar to that of K5, a known angiogenic inhibitor (Zhang et al., 2001).
# (§2) Quantification of viable cells: Cells were plated in 12-well plates in triplicate and cultured in the growth medium until they reached 60-70% of confluency. The culture medium was replaced with a medium containing 1% fetal bovine serum (FBS). Recombinant kallistatin was added to the cover medium to various concentrations and incubated with the cells for 72 h. The viable cells were quantified by the MTT (3-[4,5-dimethylthiazol-2-yl]-2,5-dephenyl tetrazolium bromid, Roche, Mannheim, Germany) assay following a protocol recommended by the manufacturer. The effect of kallistatin on viable cell number was analyzed using Student's t test.
# VEGF = VEGF in the conditioned medium of RCEC by ELISA; format: cell-based, bovine; conditions: RCEC under hypoxia, 24 h, 5-80 nM
# Experimental: FIG. 9 illustrates down-regulation of VEGF expression by kallistatin. As increased VEGF levels in the retina and vitreous play a key role in the development of retinal neovascularization, the effect of kallistatin on the expression of VEGF in cultured RCEC was determined. VEGF secreted into the conditioned medium was measured by VEGF ELISA and normalized by total protein concentration in the medium.
# Measurement of VEGF in the conditioned medium of RCEC by ELISA: RCEC were seeded in T75 flasks in endothelial cell growth medium and cultured in a CO2 incubator to reach 60-70% confluency. The cells were washed 3 times with PBS and the growth medium replaced by a serum-free medium containing bFGF (GIBCO-BRL, Gaithersburg, Md.). Kallistatin was added to the medium to various concentrations and incubated with the cells for 24 h under normoxia or hypoxia (in a chamber that was perfused with a mixture of 95% N2+5% CO2). The conditioned medium was harvested for VEGF ELISA and the cells were used for Western blot analysis. The conditioned medium was centrifuged and the protein concentration in the supernatant was measured with BioRad protein assay. VEGF concentration was measured using a VEGF ELISA kit (R& D systems, Minneapolis, Minn.) and normalized by total protein concentration in the medium.
# RCEC = experiment: Quantitative analysis of apoptosis by Annexin V/PI flow cytometry; format: cell-based, bovine; conditions: 24 h, 40-640 nM
# Experimental: To determine whether kallistatin might induce cell death, RCEC were incubated with different concentrations of kallistatin or 10 μM chochicine for 24 h, and the apoptotic cells were quantified using the Annexin V-flow cytometry method. Phosphatidylserine externalization is a characteristic of cells undergoing apoptosis. The Annexin V-FITC kit allows for fluorescent detection of Annexin V bound to apoptotic cells and quantitative determination by flow cytometry. The Annexin V-FITC kit uses Annexin V conjugated with fluorescein isothiocyante (FITC) to label phosphatidylserine sites on the membrane surface. The kit includes propidium iodide (PI) to label the cellular DNA in necrotic cells where the cell membrane has been totally compromised. This combination allows the differentiation among early apoptotic cells (Annexin V positive, PI negative), necrotic cells (Annexin V positive, PI positive), and viable cells (Annexin V negative, PI negative) which can be located in the lower right, upper right, and lower left quadrants of the cytograms, respectively (FIG. 4a). Because only cells that are Annexin V-positive and PI-negative are truly apoptotic cells, the percentage of this cell population was quantified.
# Quantitative analysis of apoptosis by flow cytometry: RCEC were plated at a density of 10^5 cells/well in 6-well plates. […] The cells were subsequently counted by flow cytometry.
# [1] = tested on: rat Müller cell line, rMC-1; experiment: Quantification of viable cells by MTT assay, Müller cell line; format: cell-based; conditions: 5-160 nM, 72 h, P>0.05
# Experimental: as §1, §2
# TGF-β = experiment: TGF-β-induced fibronectin secretion in HMC (ELISA); format: cell-based, human; conditions: 5 ng/ml TGF-β, 3 days
# Experimental: FIG. 12 illustrates that kallistatin blocks TGF-β-induced fibronectin over-production in HMC. HMC were treated with 5 ng/ml TGF-β without or with different concentrations of kallistatin for 3 days. Fibronectin secreted into the medium was measured by ELISA (mean±SD, n=3). TGF-β induced significant over-production of fibronectin.
# Kallistatin blocks the function of TGF-β, a major pathogenic factor in DN. TGF-β is a major inflammatory and fibrosis mediator. It plays a major role in the development of DN. To explore the role of kallistatin in DN, the effect of kallistatin in blocking TGF-β activity in kidney cells was determined. HMC were treated with 5 ng/ml TGF-β for 3 days without or with different concentrations of kallistatin.
molecule,measurement,setting,value
B1,PEDF levels in the cultured medium,PEDF,prevents the decrease of PEDF under the high glucose insult
same,PEDF levels in the cultured medium,PEDF; listed as Kallistatin,reversed the changes of PEDF under high glucose conditions
same,inhibition of pericytes (viable cells),pericytes,did not result in any significant inhibition
same,VEGF secreted into the conditioned medium,VEGF,reduced VEGF in the medium
same,"apoptosis (Annexin V-positive, PI-negative cells)",RCEC,increases apoptosis in RCEC in a dose-dependent manner
same,inhibition of the Müller cell line (viable cells),[1],did not result in any significant inhibition
same,TGF-β-induced fibronectin secretion,TGF-β,blocked the TGF-β-induced fibronectin secretion in a concentration-dependent manner
same,TGF-β-induced fibronectin secretion,TGF-β; listed as Kallistatin,blocked the TGF-β-induced fibronectin production in a concentration-dependent manner
